From article PMC9514091, “Discovery of the first PD-1 ligand encoded by a pathogen” (Frontiers in Immunology, 2022)

Biological target: T1, host PD-1-Fc fusion protein ( ('host'; the dolphin PD-1 of …)
T1 chain: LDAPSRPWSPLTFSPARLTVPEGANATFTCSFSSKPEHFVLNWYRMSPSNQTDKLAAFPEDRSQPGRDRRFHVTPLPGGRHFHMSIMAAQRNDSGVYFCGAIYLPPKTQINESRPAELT
Test: SPR; Biacore T200, 25°C; PD-1-Fc amine-coupled to a CM4 chip (acetate buffer pH 6.5); De2-Fc or PD-L1-Fc as analytes at 0-400 nM in PBS with 0.05% Tween, 30 µL/min; 1:1 Langmuir model
Details: both partners purified

B1: host PD-L1-Fc fusion protein (Fc fusion)
chain: FTITVPKDLYVVEYGSNVTLECRFPVDKQLNLLALVVYWEMEDKKIIQFVNGEEDLNVQHSSYNQRALLLKNQLPLGKAALQITDVKLQDAGIYCCLISYGGADYKRITLKVNASYRKINQTISVDPVTSEHELMCQAEGYPEAEVIWTSSDHRVLSGKTTITSSKREEKLFNVTSTLRINTTANEIFYCIFRRLGHEENSTAELV
In the case of B1, the Kd is reported as 6.2 nM.
